Values quoted from earlier work as cited in article PMC12704549.

Target: pro-IL-18 (Homo sapiens) (UniProt Q14116)
Sequence (Q14116 37-193): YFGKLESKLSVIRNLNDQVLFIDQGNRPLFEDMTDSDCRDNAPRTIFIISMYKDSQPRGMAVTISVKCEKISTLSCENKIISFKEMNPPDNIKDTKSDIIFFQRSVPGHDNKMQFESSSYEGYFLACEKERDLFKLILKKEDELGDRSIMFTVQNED

Chain of caspase-4 (P49662 290-377): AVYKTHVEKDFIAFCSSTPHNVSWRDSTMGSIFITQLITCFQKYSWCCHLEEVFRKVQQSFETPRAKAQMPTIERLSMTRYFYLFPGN

Kd: 290 nM
Substance: caspase-4 (from UniProt P49662)
